We go through two molecules from publication PMC6887548 (Nature, 2019).

Assay [1] deals with origin recognition complex (ORC) (yeast, UniProt P54784;P32833;P54790;P54791;P50874;P38826). The assay is described as follows: cryo-EM 2D class averages.
Another assay addresses T1, Mcm2 (yeast, UniProt P29469).
T1 sequence: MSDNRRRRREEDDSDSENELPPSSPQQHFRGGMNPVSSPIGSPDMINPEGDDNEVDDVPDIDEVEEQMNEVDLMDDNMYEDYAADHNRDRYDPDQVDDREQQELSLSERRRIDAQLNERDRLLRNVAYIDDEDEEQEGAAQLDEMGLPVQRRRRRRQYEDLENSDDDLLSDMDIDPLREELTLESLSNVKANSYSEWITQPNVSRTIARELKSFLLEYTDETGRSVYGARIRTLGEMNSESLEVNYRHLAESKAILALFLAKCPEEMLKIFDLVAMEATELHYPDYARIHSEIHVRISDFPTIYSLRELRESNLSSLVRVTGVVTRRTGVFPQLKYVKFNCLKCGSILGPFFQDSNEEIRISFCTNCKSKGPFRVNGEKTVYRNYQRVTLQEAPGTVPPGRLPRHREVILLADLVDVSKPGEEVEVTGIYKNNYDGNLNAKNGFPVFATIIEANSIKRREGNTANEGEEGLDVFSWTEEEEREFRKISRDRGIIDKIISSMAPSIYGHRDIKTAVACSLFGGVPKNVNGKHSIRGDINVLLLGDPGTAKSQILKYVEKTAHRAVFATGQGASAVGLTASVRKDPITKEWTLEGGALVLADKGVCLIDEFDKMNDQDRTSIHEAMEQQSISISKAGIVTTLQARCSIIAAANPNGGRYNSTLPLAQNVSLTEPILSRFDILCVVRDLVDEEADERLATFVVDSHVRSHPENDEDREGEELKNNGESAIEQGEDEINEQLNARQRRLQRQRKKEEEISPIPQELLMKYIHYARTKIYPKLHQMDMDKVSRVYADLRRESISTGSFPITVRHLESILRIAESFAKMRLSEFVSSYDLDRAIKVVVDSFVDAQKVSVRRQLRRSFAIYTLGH
The assay can be described thus: cryo-EM structure.

A further assay addresses T2, Mcm5 (yeast, UniProt P29496).
T2 sequence: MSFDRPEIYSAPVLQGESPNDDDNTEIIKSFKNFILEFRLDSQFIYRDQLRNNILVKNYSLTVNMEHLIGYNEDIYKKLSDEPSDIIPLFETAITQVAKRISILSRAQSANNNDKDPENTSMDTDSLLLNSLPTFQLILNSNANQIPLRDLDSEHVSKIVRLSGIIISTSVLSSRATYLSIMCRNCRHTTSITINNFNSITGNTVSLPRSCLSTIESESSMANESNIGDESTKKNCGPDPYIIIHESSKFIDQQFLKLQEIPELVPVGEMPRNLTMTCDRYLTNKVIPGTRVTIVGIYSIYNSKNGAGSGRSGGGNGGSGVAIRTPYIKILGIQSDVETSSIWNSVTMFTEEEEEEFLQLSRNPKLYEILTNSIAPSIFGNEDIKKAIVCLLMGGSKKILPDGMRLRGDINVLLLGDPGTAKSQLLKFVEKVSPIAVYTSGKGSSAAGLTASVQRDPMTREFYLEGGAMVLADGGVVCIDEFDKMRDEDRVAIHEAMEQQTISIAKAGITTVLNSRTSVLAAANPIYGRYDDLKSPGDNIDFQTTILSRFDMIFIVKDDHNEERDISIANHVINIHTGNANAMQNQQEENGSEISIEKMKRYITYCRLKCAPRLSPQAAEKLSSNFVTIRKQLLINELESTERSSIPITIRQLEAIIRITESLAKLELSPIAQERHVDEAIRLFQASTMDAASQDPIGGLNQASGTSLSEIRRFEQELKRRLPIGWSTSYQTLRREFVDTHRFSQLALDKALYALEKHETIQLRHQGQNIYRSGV
The assay is described as follows: cryo-EM structure.

B1: Cdc6 (natural protein)
chain: MSAIPITPTKRIRRNLFDDAPATPPRPLKRKKLQFTDVTPESSPEKLQFGSQSIFLRTKALLQKSSELVNLNSSDGALPARTAEYEQVMNFLAKAISEHRSDSLYITGPPGTGKTAQLDMIIRQKFQSLPLSLSTPRSKDVLRHTNPNLQNLSWFELPDGRLESVAVTSINCISLGEPSSIFQKIFDSFQDLNGPTLQIKNMQHLQKFLEPYHKKTTFVVVLDEMDRLLHANTSETQSVRTILELFLLAKLPTVSFVLIGMANSLDMKDRFLSRLNLDRGLLPQTIVFQPYTAEQMYEIVIQKMSSLPTIIFQPMAIKFAAKKCAGNTGDLRKLFDVLRGSIEIYELEKRFLLSPTRGSLNSAQVPLTPTTSPVKKSYPEPQGKIGLNYIAKVFSKFVNNNSTRTRIAKLNIQQKLILCTIIQSLKLNSDATIDESFDHYIKAITKTDTLAPLQRNEFLEICTILETCGLVSIKKTKCKGKTKRFVDKIDVDLDMREFYDEMTKISILKPFLH
For the molecule B1, the binding result in assay [1] is given as “binds”.

B2: Orc6 (natural protein)
chain: MSMQQVQHCVAEVLRLDPQEKPDWSSGYLKKLTNATSILYNTSLNKVMLKQDEEVARCHICAYIASQKMNEKHMPDLCYYIDSIPLEPKKAKHLMNLFRQSLSNSSPMKQFAWTPSPKKNKRSPVKNGGRFTSSDPKELRNQLFGTPTKVRKSQNNDSFVIPELPPMQTNESPSITRRKLAFEEDEDEDEEEPGNDGLSLKSHSNKSITGTRNVDSDEYENHESDPTSEEEPLGVQESRSGRTKQNKAVGKPQSELKTAKALRKRGRIPNSLLVKKYCKMTTEEIIRLCNDFELPREVAYKIVDEYNINASRLVCPWQLVCGLVLNCTFIVFNERRRKDPRIDHFIVSKMCSLMLTSKVDDVIECVKLVKELIIGEKWFRDLQIRYDDFDGIRYDEIIFRKLGSMLQTTNILVTDDQYNIWKKRIEMDLALTEPL
B2: the binding result with Mcm2 and with Mcm5 was “binds” each time.
